From article PMC4981022
Where two headings read alike, the source gives them in different places.

Columns and labels:
[1] = biological target: endogenous TRAPPC6A (TPC6A), human cells (human (endogenous in HEK293, BCC, SK-N-SH and other human cell lines)) (UniProt O75865); experiment: western blotting (size of the bands); cytosol and nuclei of BCC cells, with or without UV irradiation; mitochondria of Jurkat T cells treated with PMA for 90 min
[2] = biological target: endogenous TRAPPC6A (TPC6A), human cells (human (endogenous in HEK293, BCC, SK-N-SH and other human cell lines)) (UniProt O75865); experiment: as above; remark: listed apart in the source

“endogenous TRAPPC6A (TPC6A), human cells (from UniProt O75865 1-159) (natural protein)” was tested, and the stoichiometry N [1] was 2 and the stoichiometry N [2] was 3.
